From publication PMC6588657 (2018) come the findings set out here.

The target in this test is Full-length Drosophila ATL (Drosophila) (UniProt Q9VC57).
Full-length Drosophila ATL (Drosophila), sequence (Q9VC57 whole entry): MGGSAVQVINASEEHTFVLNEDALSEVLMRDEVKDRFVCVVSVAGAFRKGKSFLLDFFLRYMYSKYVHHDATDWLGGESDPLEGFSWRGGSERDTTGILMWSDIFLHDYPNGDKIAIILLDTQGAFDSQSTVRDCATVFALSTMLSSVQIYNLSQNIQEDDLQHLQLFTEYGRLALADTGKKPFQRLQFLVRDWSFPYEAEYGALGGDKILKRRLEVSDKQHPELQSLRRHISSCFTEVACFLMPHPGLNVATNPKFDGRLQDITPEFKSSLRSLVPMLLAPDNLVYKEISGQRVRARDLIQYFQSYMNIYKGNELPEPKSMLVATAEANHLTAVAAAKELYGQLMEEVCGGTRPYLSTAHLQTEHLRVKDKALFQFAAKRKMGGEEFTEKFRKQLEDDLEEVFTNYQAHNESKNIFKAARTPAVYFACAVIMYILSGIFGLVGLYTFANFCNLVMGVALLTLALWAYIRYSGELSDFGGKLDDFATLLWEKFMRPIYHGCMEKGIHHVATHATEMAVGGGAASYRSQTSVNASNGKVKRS

dmLnp-NT-Flag-GST (domain or fragment) registered a GTP-dependent fusion of dmATL donor and acceptor vesicles (NBD dequenching), dmLnp-NT at 5 times the concentration of dmATL, against samples without Lnp of 50%.
